Reference: paper PMC2527209

Molecular target: non-translating mammalian (canine) ribosome (canine)
Test: co-sedimentation

Sec61 complex (from UniProt P38377 1-476; P60467 1-96; P60058 1-68)
stoichiometry N: 0.8
